We go through 1 molecule from patent US20220089776A1 (OREGON HEALTH AND SCIENCE UNIVERSITY, published 2022).

For assay [1], the target named is T1, human blood protein factor XII (FXII) (human, UniProt P00748 20-615).
T1 sequence (looked up): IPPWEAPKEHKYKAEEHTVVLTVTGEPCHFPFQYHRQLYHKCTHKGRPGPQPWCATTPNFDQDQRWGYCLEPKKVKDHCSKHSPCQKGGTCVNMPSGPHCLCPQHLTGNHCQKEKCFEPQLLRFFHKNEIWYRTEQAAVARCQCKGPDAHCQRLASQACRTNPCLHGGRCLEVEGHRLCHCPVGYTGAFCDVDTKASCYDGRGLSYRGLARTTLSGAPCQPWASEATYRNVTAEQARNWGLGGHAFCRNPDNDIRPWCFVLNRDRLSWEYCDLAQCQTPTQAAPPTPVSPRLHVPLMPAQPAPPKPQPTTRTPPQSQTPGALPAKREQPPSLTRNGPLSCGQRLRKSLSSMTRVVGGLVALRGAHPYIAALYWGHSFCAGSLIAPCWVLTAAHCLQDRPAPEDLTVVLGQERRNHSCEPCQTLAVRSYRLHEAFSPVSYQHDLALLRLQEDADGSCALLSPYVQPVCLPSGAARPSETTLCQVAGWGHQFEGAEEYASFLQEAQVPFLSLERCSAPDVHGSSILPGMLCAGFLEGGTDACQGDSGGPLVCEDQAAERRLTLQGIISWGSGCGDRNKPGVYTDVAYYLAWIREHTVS
The assay can be described thus: cell-based or functional assay.

Assay [2] has as its target T1, human blood protein factor XII (FXII). Nature of the assay: cell-based or functional assay. This is another data set of the same source.
The target in the next assay is T2, rabbit FXII (rabbit, UniProt G1SIB7 20-617).
T2 construct: Plasma protein
T2 sequence: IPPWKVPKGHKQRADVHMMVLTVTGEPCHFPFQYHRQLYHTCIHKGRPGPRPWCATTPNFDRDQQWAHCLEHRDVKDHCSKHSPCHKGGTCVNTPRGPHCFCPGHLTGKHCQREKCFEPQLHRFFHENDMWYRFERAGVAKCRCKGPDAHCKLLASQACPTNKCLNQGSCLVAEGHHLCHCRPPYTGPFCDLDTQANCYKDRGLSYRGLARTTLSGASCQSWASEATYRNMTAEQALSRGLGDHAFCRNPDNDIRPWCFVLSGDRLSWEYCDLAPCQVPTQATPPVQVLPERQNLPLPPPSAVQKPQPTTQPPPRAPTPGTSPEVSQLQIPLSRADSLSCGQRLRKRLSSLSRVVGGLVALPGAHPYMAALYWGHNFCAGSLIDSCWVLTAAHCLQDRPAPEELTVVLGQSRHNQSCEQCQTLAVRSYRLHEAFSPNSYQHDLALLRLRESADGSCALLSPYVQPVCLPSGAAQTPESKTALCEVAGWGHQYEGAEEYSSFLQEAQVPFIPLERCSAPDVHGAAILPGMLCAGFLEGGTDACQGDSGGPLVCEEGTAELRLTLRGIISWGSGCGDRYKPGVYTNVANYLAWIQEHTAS
Nature of the assay: Western blot of platelet-poor plasma; primary antibody murine 5C12. From the text:
(§1) FIG. 3A-3C: Species specificity of 5C12. (FIG. 3A) Western blots of platelet poor plasmas from different species (indicated above each lane) size fractionated by SDS-PAGE […]. Species included in alphabetical order: African green monkey, baboon, beagle, cat, cattle, chicken, cynomolgus monkey, dog, elephant, giant anteater, horse, human, human deficient in FXII, llama, marmoset, pig, rabbit, raccoon, rat, red kangaroo, rhesus macaque and tiger. Human plasma and human deficient in FXII plasma were used in all gels as a positive and negative control, respectively. […] 5C12 also recognizes both the alpha (comprising both the light and heavy chain of FXII) and the beta (comprising only the light chain and a nonapeptide fragment of the heavy chain) form of activated FXII (FXIIa) (FIG. 3C). The primary antibody for all Western blots was murine 5C12, the secondary antibody was goat-anti-mouse polyclonal.

For assay [3], the target named is T3, human activated FXII (FXIIa) (human, UniProt P00748 20-615, limits assumed).
T3 sequence (looked up): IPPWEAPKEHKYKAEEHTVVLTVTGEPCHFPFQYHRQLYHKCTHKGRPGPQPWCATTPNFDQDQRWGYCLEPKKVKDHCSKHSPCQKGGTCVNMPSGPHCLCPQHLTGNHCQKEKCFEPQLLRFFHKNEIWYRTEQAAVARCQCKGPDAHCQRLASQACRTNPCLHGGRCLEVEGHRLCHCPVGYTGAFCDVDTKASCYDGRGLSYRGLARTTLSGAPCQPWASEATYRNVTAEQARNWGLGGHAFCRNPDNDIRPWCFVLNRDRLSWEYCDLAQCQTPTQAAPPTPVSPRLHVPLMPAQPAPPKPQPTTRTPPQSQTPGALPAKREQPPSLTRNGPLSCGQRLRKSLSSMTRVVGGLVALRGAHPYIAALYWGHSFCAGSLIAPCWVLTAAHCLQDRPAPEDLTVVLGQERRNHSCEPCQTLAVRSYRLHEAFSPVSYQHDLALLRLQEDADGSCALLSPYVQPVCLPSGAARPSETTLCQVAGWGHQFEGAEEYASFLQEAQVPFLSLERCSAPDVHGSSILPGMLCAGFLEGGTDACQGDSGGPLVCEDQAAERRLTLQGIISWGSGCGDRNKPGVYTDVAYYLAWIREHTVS
Nature of the assay: cell-based or functional assay.

Another assay addresses T4, rat FXII (rat, UniProt D3ZTE0 20-595).
T4 construct: mature; Plasma protein
T4 sequence (looked up): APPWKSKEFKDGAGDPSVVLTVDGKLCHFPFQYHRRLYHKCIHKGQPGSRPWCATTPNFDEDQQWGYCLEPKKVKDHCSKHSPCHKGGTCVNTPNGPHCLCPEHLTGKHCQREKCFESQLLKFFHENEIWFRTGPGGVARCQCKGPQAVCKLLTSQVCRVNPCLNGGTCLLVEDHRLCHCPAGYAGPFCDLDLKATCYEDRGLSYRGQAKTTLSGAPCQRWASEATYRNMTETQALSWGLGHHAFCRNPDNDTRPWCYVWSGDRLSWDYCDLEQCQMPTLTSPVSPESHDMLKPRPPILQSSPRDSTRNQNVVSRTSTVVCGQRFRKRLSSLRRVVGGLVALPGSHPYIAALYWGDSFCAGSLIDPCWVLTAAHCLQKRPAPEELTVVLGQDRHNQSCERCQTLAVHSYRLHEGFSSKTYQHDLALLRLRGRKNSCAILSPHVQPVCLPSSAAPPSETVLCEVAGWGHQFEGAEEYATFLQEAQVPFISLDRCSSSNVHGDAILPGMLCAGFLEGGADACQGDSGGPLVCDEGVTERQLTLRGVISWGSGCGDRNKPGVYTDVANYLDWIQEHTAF
Nature of the assay: Western blot of platelet-poor plasma, non-reduced SDS-PAGE.

The next assay addresses T5, mouse FXII (mouse, UniProt Q80YC5 20-597).
T5 construct: mature; Plasma protein; Tested only in the aPTT assay
T5 sequence (looked up): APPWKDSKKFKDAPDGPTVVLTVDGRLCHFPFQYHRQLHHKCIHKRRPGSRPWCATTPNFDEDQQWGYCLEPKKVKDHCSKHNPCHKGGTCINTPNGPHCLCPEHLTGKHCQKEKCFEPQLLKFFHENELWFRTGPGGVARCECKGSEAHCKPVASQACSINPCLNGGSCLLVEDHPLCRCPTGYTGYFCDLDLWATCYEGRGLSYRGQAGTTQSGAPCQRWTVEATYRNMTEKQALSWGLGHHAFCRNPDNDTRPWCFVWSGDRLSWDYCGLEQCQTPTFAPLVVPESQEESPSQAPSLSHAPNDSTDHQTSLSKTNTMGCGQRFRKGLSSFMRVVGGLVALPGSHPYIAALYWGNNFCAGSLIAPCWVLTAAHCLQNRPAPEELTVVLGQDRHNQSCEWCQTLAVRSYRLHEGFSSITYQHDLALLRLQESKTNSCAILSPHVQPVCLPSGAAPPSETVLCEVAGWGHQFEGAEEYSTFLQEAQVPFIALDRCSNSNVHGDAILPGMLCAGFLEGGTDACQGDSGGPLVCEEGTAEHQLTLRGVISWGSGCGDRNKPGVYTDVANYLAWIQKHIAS
The assay can be described thus: Western blot of recombinant mouse FXII, non-reduced and reduced SDS-PAGE; primary antibody murine 5C12.
Text: as §1

B1: mouse monoclonal antibody 5C12 (antibody, mouse IgG1, kappa, V domains shown)
VH: DVQLQESGPDLVKPSQSLSLTCTVTGYSITSGYSWHWIRQFPGNNLEWMGYIQYSGNTNSNPSLKSRISITRDTSKNQFFLHLNSVTTEDTATYYCARWGSFDYWGQGTTLTVSS
VL: QIVLTQSPAIMSASPGEKVTMTCSASSSVNYMHWYQQKSGTSPKRWIYDTSKLASGVPARFSGSGSGTSYSLTISSMEAGDAATYYCQQWSGNPPTFGGGTILEIKR
notes: Purified from hybridoma; also called AB053; 5C12 MAb
As for B1, the “IC50 (read off the curve): FXIIa amidolytic activity after activation of 50 nM FXII with short polyphosphates, PK and HK” value in assay [1] was about 10 nM. Further, the “IC50 (read off the curve): FXIIa amidolytic activity after activation of 50 nM FXII with long polyphosphates, PK and HK” value in assay [2] was about 10 nM. Also, the binding result in the assay with rabbit FXII, in the assay with rat FXII and with mouse FXII was “no binding” in each case. The “IC50 (read off the curve): amidolytic activity of 20 nM FXIIa” value in assay [3] was about 7 nM.
